Test [1] deals with T1, Human CD137 shuffle 1 (amino acids 162-186 replaced by wild boar CD137) (human, amino acids 162-186 from wild …, UniProt Q07011 24-255).
T1 construct: also called shuffle construct 1
T1 chain: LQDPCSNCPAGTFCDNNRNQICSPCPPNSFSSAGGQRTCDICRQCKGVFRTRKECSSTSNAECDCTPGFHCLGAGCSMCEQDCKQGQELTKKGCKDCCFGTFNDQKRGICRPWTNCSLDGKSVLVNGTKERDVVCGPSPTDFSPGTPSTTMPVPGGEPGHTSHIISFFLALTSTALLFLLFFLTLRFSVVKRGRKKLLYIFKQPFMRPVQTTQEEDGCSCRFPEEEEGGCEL
The test is described as follows: flow cytometry on transfected HEK293T-17 cells, 1 µg/mL antibody. Here is the method: (§1) 3×10⁶ HEK293T-17 cells were seeded in T75 culture flasks (Greiner Bio-One, cat. no. 658175) in 20 mL RPMI 1640 GlutaMAX medium containing 10% FCS (Biochrom, cat. no. S 0115). After O/N incubation, cells were transiently […] with expression vectors encoding the shuffle constructs or the wild boar, African elephant or human CD137 downstream of a constitutively active human elongation factor-1 alpha (EF-1 alpha) promotor using TransIT®-LT1 Transfection Reagent, Mirus Bio (VWR International, cat. no. 731-0029), according to the manufacturer's instructions. The next day, cells were harvested using 1.5 mL Accutase (Sigma Aldrich, cat. no. A6964) (incubation at 37° C. for 5 min.) and flow cytometry was performed, essentially as described in Example 4, to measure surface expression of the shuffle constructs and the human, African elephant and wild boar CD137 and to measure binding of the antibody clones to the different shuffle constructs. To measure cell surface expression of the constructs, transduced cells were incubated with 1 μg/mL goat polyclonal anti-human CD137 (R&D Systems, cat. no. AF838) in FACS buffer (D-PBS supplemented with 5 mM EDTA [Sigma Aldrich, cat. no. 03690] and 5% (v/v) fetal bovine serum [FBS, Biochrom, cat. no. S 0115]) (4° C., 20 min.), followed by incubation with APC-labeled anti-goat IgG (H+L) (R&D Systems, cat. no. F0108) (4° C., 20 min.). Binding of the different CD137 antibody clones to cells expressing the shuffle constructs was measured by incubation of the transduced cells with 1 μg/mL of the antibody clones, followed by APC-labeled AffiniPure F(ab′)2 Fragment (1:50 final dilution; Jackson, cat. no. 109-136-127).
(In general: A flow cytometer gives signals particle by particle.)

Test [2] addresses T2, Human CD137 shuffle 2 (amino acids 139-161 replaced by wild boar CD137) (human, amino acids 139-161 from wild …, UniProt Q07011 24-255).
T2 construct: also called shuffle construct 2
T2 chain: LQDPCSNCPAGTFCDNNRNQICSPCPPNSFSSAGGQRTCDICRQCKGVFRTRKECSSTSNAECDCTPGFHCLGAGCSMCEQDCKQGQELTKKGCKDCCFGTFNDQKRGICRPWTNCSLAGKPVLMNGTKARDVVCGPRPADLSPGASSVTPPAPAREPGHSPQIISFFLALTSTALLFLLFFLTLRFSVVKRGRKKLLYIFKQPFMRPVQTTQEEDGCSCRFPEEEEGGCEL
The test is described as above. Here is the method: as §1

In test [3] the target is T3, Human CD137 shuffle 5 (amino acids 48-88 replaced by African elephant CD137) (human, amino acids 48-88 from African …, UniProt Q07011 24-255).
T3 construct: also called shuffle construct 5
T3 chain: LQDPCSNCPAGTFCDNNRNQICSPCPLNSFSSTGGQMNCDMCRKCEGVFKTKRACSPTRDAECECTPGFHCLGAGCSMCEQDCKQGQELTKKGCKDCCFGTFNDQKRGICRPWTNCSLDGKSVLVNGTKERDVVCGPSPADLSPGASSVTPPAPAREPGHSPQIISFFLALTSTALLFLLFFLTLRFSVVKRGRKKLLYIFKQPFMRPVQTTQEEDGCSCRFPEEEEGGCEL
Described as above. As for the experimental part: as §1

Test [4] deals with T4, Human CD137 shuffle 3 (amino acids 115-138 replaced by wild boar CD137) (human, amino acids 115-138 from wild …, UniProt Q07011 24-255).
T4 construct: also called shuffle construct 3
T4 chain: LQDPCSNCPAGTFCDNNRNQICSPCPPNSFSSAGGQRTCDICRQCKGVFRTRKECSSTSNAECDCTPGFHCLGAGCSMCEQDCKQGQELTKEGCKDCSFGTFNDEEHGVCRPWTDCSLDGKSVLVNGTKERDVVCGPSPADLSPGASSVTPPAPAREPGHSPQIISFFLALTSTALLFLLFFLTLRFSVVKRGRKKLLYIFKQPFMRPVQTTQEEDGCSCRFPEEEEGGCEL
The test is described as follows: flow cytometry on transfected HEK293T-17 cells. Here is the method: as §1

In test [5] the target is T5, Human CD137 shuffle 4 (amino acids 89-114 replaced by wild boar CD137) (human, amino acids 89-114 from wild boar, UniProt Q07011 24-255).
T5 construct: also called shuffle construct 4
T5 chain: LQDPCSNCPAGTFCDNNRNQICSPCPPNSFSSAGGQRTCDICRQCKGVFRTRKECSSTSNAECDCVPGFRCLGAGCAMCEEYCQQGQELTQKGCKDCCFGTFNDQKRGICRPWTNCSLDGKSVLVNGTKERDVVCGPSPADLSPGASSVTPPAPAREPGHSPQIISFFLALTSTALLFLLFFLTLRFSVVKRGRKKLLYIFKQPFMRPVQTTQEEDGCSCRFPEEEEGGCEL
Description: flow cytometry on transfected HEK293T-17 cells. Here is the method: as §1

In test [6] the target is T6, Human CD137 (TNR9_Human) (human, UniProt Q07011 24-255).
T6 construct: Full-length human CD137 expressed on HEK293T-17, NF-kB/293/GFP-Luc or K562 cells, or native on T cells; also called hCD137 wt; 4-1BB
The test is described as follows: flow cytometry, HEK293-T17 cells transiently transfected with human CD137, antibody at 1 µg/mL, APC-labeled F(ab')2 secondary. As for the experimental part: (§2) FIG. 4: Binding of CD137 antibody clones to CD137 shuffle constructs expressed on HEK293-T17 cells. HEK293-T17 cells were transfected with the CD137 shuffle constructs, and with human CD137 (hCD137 wt), African elephant of wild boar CD137, as indicated. Binding of the different CD137 antibody clones to these constructs expressed on HEK293-T17 cells was measured by flow cytometry. Staining with polyclonal anti-CD137 antibody is shown as a control.
as §1

Test [7] concerns the target T6, Human CD137 (TNR9_Human). The test is described as follows: flow cytometry, HEK293-T17 cells transiently transfected with human CD137, antibody at 1 µg/mL, APC-labeled F(ab')2 secondary [cont.]. As for the experimental part: as §2, §1
The target of test [8] is T4, Human CD137 shuffle 3 (amino acids …). The test is described as follows: flow cytometry on transfected HEK293T-17 cells, 1 µg/mL antibody. Here is the method: as §1
Test [9] has as its target T5, Human CD137 shuffle 4 (amino acids …). The description is as above. As for the experimental part: as §1
Test [10] deals with T7, Human CD137 shuffle 6 (amino acids 24-47 replaced by wild boar CD137) (human, amino acids 24-47 from wild boar, UniProt Q07011 26-200).
T7 construct: also called shuffle construct 6
T7 chain: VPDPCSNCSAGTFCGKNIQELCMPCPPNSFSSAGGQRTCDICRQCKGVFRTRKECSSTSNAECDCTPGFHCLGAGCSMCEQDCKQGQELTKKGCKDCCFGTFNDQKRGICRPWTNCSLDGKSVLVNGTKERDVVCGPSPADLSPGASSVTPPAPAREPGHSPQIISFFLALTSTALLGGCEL
Description: flow cytometry on transfected HEK293T-17 cells. Here is the method:
as §1

B1: CD137 antibody clone 004 (rabbit) (antibody, human IgG1, kappa, V domains shown)
VH: QSLEESGGRLVTPGTPLTLTCTASGFSLSRYDMSWVRQAPGKGLEYIGVISSSGGTNYANWAKGRFTISKTSTTVDLKITSPTTEDTATYFCAREGDYWDFNLWGPGTLVTVSS
VL: AQVLTQTPSSVSAAVGGTVTINCQASQSISNLLAWYQQKPGQPPKLLIYGASTLASGVPSRFSGSGSGTEFTLTISDLESDDAATYYCAGGFPGLDTVAAFGGGTEAVVTR
notes: also called Clone 4; CD137 clone 004
On to B1, for which the binding result is on record as “binds” in [1]; “binds” in test [2]; “binds” in [3]; “no binding (tested: 1 µg/mL)” in test [4]; “no binding (tested: 1 µg/mL)” in test [5]; “binds” in test [6].

B2: CD137 antibody clone 011 (rabbit) (antibody, human IgG1, kappa, V domains shown)
VH: QSLEESGGRLVTPGTPLTLTCTVSGIDLSSYHMCWVRQAPGKGLEYIGYIAYGGNTYYANWAKGRFTISKTSTTVDLRITSPTTEDTATYFCARGYSEDSYWGLWGPGTLVTVSS
VL: AYDMTQTPASVEAAVGGTVTIKCQASQNIENYLAWYQQKPGQPPKLLIYDTSKLTSGVPSRFSGSGSGTDFTLTISGVQSDDAATYYCQQDYGIIFVDNIFGGGTEVVVKR
notes: also called Clone 11; CD137 clone 011
B2: the binding result in [1] is reported as “binds”; in test [2] it was “binds”; in test [3] it was “binds”; in test [4], “no binding (tested: 1 µg/mL)”; in test [5] it was “no binding (tested: 1 µg/mL)”; in [7] it was “binds”.

B3: CD137 antibody clone 005 (rabbit) (antibody, human IgG1, kappa, V domains shown)
VH: QSVEESGGRLVTPGTPLTLTCTASGFTISDFHVTWVRQAPGKGLEWIGTIITSASTTAYATWARGRFTISKSSTTVNLKIVSPTTEDTATYFCARSTYTDTSGYYFDFWGQGTLVTVSS
VL: AQVLTQTASPVSAAVGGTVIINCQSSQSIYNGNRLSWYQQKPGQPPKLLIYSASTLASGVSSRFKGSGSGTQFTLAISDVQSDDAATYYCLGSYDCDSADCFAFGGGTEVVVER
notes: also called Clone 5; CD137 clone 005
As for B3, the binding result in test [1] is recorded as “binds”; in test [8], “binds”; in test [2], “binds”; in test [9], “binds”; in test [3], “binds”; in [10], “no binding (tested: 1 µg/mL)”. For the same molecule, the binding result in [6] was “binds”.

The record behind these values is patent US20210317225A1 (Genmab, published 2021).
